Data from paper PMC12416549 (2024).
Numbering of substitutions follows the chain as printed. Numbers in names are those of the source. One block for each binder: values may come before it.

Target: T1, TNFR1 (Homo sapiens, UniProt P19438)
T1 chain: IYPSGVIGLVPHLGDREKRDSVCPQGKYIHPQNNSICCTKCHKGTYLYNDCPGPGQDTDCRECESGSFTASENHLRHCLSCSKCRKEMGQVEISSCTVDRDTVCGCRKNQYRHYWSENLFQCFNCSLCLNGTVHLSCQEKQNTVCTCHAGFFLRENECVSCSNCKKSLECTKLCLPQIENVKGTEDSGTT
Test: yeast display SC50

apparent Kd (screen): 0.593 nM
B1: V85I (designed binder)
chain: MTLQELLREEALRRAEAEAFRYALELLAEKFPEQKEYLLDLAEEIESQIRSLSGVDVEDVRKFLDKEWAWVKELLAEHPAELAEIEAARAARLAELRAEVEAKVAA

apparent Kd (screen): 2.25 nM
B2: E36T (designed binder)
chain: B1 chain with E36T, I85V

apparent Kd (screen): 0.49 nM
B3: K72H (designed binder)
chain: B1 chain with K72H, I85V

apparent Kd (screen): 0.718 nM
B4: K30S (designed binder)
chain: B1 chain with K30S, I85V

apparent Kd (screen): 0.79 nM
B5: E99T (designed binder)
chain: B1 chain with I85V, E99T

apparent Kd (screen): 0.956 nM
B6: V104T (designed binder)
chain: B1 chain with I85V, V104T

apparent Kd (screen): 0.653 nM
B7: S47T (designed binder)
chain: B1 chain with S47T, I85V

apparent Kd (screen): 2.48 nM
B8: D56T (designed binder)
chain: B1 chain with D56T, I85V

apparent Kd (screen): 0.869 nM
B9: L75T (designed binder)
chain: B1 chain with L75T, I85V

apparent Kd (screen): 0.869 nM
B10: L24E (designed binder)
chain: B1 chain with L24E, I85V

apparent Kd (screen): 0.446 nM
B11: V85T (designed binder)
chain: B1 chain with I85T

apparent Kd (screen): 0.956 nM
B12: A19E (designed binder)
chain: B1 chain with A19E, I85V

apparent Kd (screen): 0.446 nM
B13: F20N (designed binder)
chain: B1 chain with F20N, I85V

apparent Kd (screen): 0.49 nM
B14: A91D (designed binder)
chain: B1 chain with I85V, A91D

apparent Kd (screen): 0.869 nM
B15: K66E (designed binder)
chain: B1 chain with K66E, I85V

apparent Kd (screen): 12.5 nM
B16: V71P (designed binder)
chain: B1 chain with V71P, I85V

apparent Kd (screen): 0.593 nM
B17: E58S (designed binder)
chain: B1 chain with E58S, I85V

apparent Kd (screen): 0.653 nM
B18: A98R (designed binder)
chain: B1 chain with I85V, A98R

apparent Kd (screen): 0.446 nM
B19: D65E (designed binder)
chain: B1 chain with D65E, I85V

apparent Kd (screen): 1.4 nM
B20: L93A (designed binder)
chain: B1 chain with I85V, L93A

apparent Kd (screen): 0.718 nM
B21: E18R (designed binder)
chain: B1 chain with E18R, I85V

apparent Kd (screen): 0.446 nM
B22: K35H (designed binder)
chain: B1 chain with K35H, I85V

apparent Kd (screen): 0.79 nM
B23: A94Q (designed binder)
chain: B1 chain with I85V, A94Q

apparent Kd (screen): 4.39 nM
B24: W68V (designed binder)
chain: B1 chain with W68V, I85V

apparent Kd (screen): 0.593 nM
B25: E101F (designed binder)
chain: B1 chain with I85V, E101F

apparent Kd (screen): 0.49 nM
B26: A80M (designed binder)
chain: B1 chain with A80M, I85V

apparent Kd (screen): 1.69 nM
B27: Q34W (designed binder)
chain: B1 chain with Q34W, I85V

apparent Kd (screen): 2.73 nM
B28: L3A (designed binder)
chain: B1 chain with L3A, I85V

apparent Kd (screen): 12.5 nM
B29: V60P (designed binder)
chain: B1 chain with V60P, I85V

apparent Kd (screen): 0.653 nM
B30: K66V (designed binder)
chain: B1 chain with K66V, I85V

apparent Kd (screen): 0.593 nM
B31: P32G (designed binder)
chain: B1 chain with P32G, I85V

apparent Kd (screen): 0.593 nM
B32: L26Q (designed binder)
chain: B1 chain with L26Q, I85V

apparent Kd (screen): 0.446 nM
B33: V100C (designed binder)
chain: B1 chain with I85V, V100C

apparent Kd (screen): 2.05 nM
B34: S51D (designed binder)
chain: B1 chain with S51D, I85V

apparent Kd (screen): 0.869 nM
B35: V100H (designed binder)
chain: B1 chain with I85V, V100H

apparent Kd (screen): 0.446 nM
B36: A28G (designed binder)
chain: B1 chain with A28G, I85V

apparent Kd (screen): 0.653 nM
B37: E58W (designed binder)
chain: B1 chain with E58W, I85V

apparent Kd (screen): 0.539 nM
B38: A90M (designed binder)
chain: B1 chain with I85V, A90M

apparent Kd (screen): 0.956 nM
B39: R21M (designed binder)
chain: B1 chain with R21M, I85V

apparent Kd (screen): 11.4 nM
B40: K72P (designed binder)
chain: B1 chain with K72P, I85V

apparent Kd (screen): 0.49 nM
B41: Q4M (designed binder)
chain: B1 chain with Q4M, I85V

apparent Kd (screen): 0.956 nM
B42: E33F (designed binder)
chain: B1 chain with E33F, I85V

apparent Kd (screen): 0.593 nM
B43: K62W (designed binder)
chain: B1 chain with K62W, I85V

apparent Kd (screen): 0.446 nM
B44: L26R (designed binder)
chain: B1 chain with L26R, I85V

apparent Kd (screen): 0.956 nM
B45: E86A (designed binder)
chain: B1 chain with I85V, E86A

apparent Kd (screen): 0.79 nM
B46: P32H (designed binder)
chain: B1 chain with P32H, I85V

apparent Kd (screen): 0.653 nM
B47: E36R (designed binder)
chain: B1 chain with E36R, I85V

apparent Kd (screen): 1.69 nM
B48: E9G (designed binder)
chain: B1 chain with E9G, I85V

apparent Kd (screen): 2.73 nM
B49: E86W (designed binder)
chain: B1 chain with I85V, E86W

apparent Kd (screen): 0.49 nM
B50: Q4K (designed binder)
chain: B1 chain with Q4K, I85V

apparent Kd (screen): 24.4 nM
B51: L3N (designed binder)
chain: B1 chain with L3N, I85V

apparent Kd (screen): 0.79 nM
B52: A105S (designed binder)
chain: B1 chain with I85V, A105S

apparent Kd (screen): 0.539 nM
B53: R8N (designed binder)
chain: B1 chain with R8N, I85V

apparent Kd (screen): 0.539 nM
B54: R21D (designed binder)
chain: B1 chain with R21D, I85V

apparent Kd (screen): 3.99 nM
B55: K66P (designed binder)
chain: B1 chain with K66P, I85V

apparent Kd (screen): 3.3 nM
B56: Y37W (designed binder)
chain: B1 chain with Y37W, I85V

apparent Kd (screen): 1.05 nM
B57: K103I (designed binder)
chain: B1 chain with I85V, K103I

apparent Kd (screen): 0.653 nM
B58: L82T (designed binder)
chain: B1 chain with L82T, I85V

apparent Kd (screen): 18.3 nM
B59: L3E (designed binder)
chain: B1 chain with L3E, I85V
